PMC2791442

Experiments:
Experiment in all cases: EMSA
Details in all cases: EMSA: 200 ng protein, 5 ng 3'-biotin-labeled promoter DNA, 6% DNA retardation gel, 100 V at 4 C; binding buffer, salt and pH not stated
[1] = biological target: T1, MqsA-F (Escherichia coli) (UniProt Q46864)
T1 sequence: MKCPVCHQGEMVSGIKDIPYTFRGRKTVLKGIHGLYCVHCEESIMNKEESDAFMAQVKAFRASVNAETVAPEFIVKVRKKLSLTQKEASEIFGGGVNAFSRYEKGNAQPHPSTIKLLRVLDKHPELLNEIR

[2] = biological target: MqsR;MqsA-F (Escherichia coli;Escherichia coli) (UniProt Q46865+Q46864)
[3] = biological target: T2, MqsA-C (Escherichia coli) (UniProt Q46864)
T2 sequence: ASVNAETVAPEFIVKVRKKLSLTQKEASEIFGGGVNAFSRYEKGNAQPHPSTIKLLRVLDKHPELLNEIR

[4] = biological target: T3, MqsA-N (Escherichia coli) (UniProt Q46864)
T3 sequence: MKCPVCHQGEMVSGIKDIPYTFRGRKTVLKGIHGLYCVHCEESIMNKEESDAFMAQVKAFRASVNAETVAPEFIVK

[5] = biological target: MqsR;MqsA-N (Escherichia coli;Escherichia coli) (UniProt Q46865+Q46864)
Chain of MqsR;MqsA-N (Escherichia coli;Escherichia coli) (Q46865 whole entry, one chain of several): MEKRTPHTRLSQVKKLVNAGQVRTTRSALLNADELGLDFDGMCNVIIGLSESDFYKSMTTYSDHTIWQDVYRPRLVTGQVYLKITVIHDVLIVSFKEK

Chain of MqsR;MqsA-F (Escherichia coli;Escherichia coli) (Q46865 whole entry, one chain of several): as above

“CAGTCATCCGGTATAGTTCTTCATAATCTCTGCAAAATCATCGTGTTGTAATATTCTCTCATCACTCTCCATCAAATTTTCTTTTTTTCTCCATAATTGGCGCAAAAGTGTTTTTTACACTTTCATTGTTTTACCGTTGCTCTGATTAATTGACGCTAAAGTCAGTAAAGTTAATCTCGTCAACACGGCACGCTACTTAAGAAAGCCGTAATAAATAACTGAAAGGAAGGATATAGAATATGCGTAAATTAACTGCACTGTTTGTTGCC (double strand) [Pspy]” was tested, and the binding [1] was “binds”.
For “CCTGCAGAGTCAAACTGACATGTTTCATTTTTCCCGTTCCAGGCATTTTAATTCCTTCGCGTGTTTTCTGTCCAACCCTGCCTGCATGGCAGAAGGAATTCACCTGGTGTATTAAAGTGAATAATCATAAACCACTCACCTTTGTTGTTATTAGCAGCAGAACAATGATGTGGTTAGTTAATTAAAGCTGAAAATAAGCTTTTTGCCTGGATTTTTATGGCGGCTTACGCCGCCGTTGAAACTTTAATCATCACCCGCCACGCGGATCACCACTTTGC (double strand) [PmcbR]”, the binding [1] was “binds”.
For “CGGGTTAGTGCTAGTATGAAAAAGTGAGTCCTGTCCCGCTTCCTTCCTAATTGTAATTTTTCGTAATAATGCGATGAAAACCTGCAAAGAGTGGCTTATAGTTAAGCTAACAAACGAGAGGGCAAGTCCAGGTCAGTAAGTTTTTTCCATCCCGAAAGGTGTCCGTTAGTTCAACCGCTAAGAAGGGGACGCGTTATGGATGAATACTCACCCAAAAGACATGATATCGCACAGCTTAAGT (double strand) [PtomB]”, the binding [1] was “no binding” and the binding [2] was “no binding”.
In the case of “CGTGTATGTGGTGTGCGTTTTTCCATAACCCCCGCCTCCCTGTTACTTTAGTTATAACCTAAAAGGTTAATTACAGCAATGAAAAAGCACCTAAAAGGTTAGTTAGATGTACGGAGATAGTGACCACACAAAACGTATTCTTTAAGGAAAGTGATTGACCATATAAGAAAGTGGCGCATTAGTAGCGCCAGTTTGAAGCAGGAATTTATAAGGGAAGCTGGAGTCAGGCATCAC (double strand) [PmqsR]”, the binding [3] is reported as “binds”, the binding [1] is reported as “binds” and the binding [4] is reported as “no binding”. The binding [2] was “binds” and the binding [5] was “no binding”.
